In general, Kd refers to a measure of binding affinity in units of concentration. A high value points to weaker binding.

B1: XENP35843 (GPC3-A H1.1_L1.16, 1+1 Fab-scFv-Fc bsAb with CD3 High-Int #1 scFv) (bispecific antibody)
chain 1: QVQLVQSGAEVKKPGASVKVSCKASGYTFTDYEMHWVRQAPGQGLEWMGALEPKTGDTAYSQKFQGRVTMTADKSISTAYMELSRLRSDDTAVYYCTRFYSYTYWGQGTLVTVSSASTKGPSVFPLAPSSKSTSGGTAALGCLVKDYFPEPVTVSWNSGALTSGVHTFPAVLQSSGLYSLSSVVTVPSSSLGTQTYICNVNHKPSDTKVDKKVEPKSCDKTHTCPPCPAPPVAGPSVFLFPPKPKDTLMISRTPEVTCVVVDVKHEDPEVKFNWYVDGVEVHNAKTKPREEEYNSTYRVVSVLTVLHQDWLNGKEYKCKVSNKALPAPIEKTISKAKGQPREPQVYTLPPSREEMTKNQVSLTCDVSGFYPSDIAVEWESDGQPENNYKTTPPVLDSDGSFFLYSKLTVDKSRWEQGDVFSCSVMHEALHNHYTQKSLSLSPGK
chain 2: not shown
chain 3: DVVMTQSPLSLPVTLGQPASISCRSSQSLVHSSGNTYLHWYQQRPGQSPRLLIYKVSNRFSGVPDRFSGSGSGTDFTLKISRVEAEDVGVYFCSQSTHVPPTFGSGTKLEIKRTVAAPSVFIFPPSDEQLKSGTASVVCLLNNFYPREAKVQWKVDNALQSGNSQESVTEQDSKDSTYSLSSTLTLSKADYEKHKVYACEVTHQGLSSPVTKSFNRGEC
B2: XENP36140 (GPC3-A H1.1_L1.31, 1+1 Fab-scFv-Fc bsAb with CD3 High-Int #1 scFv) (bispecific antibody)
chain 1: B1 chain 1
chain 2: not shown
chain 3: B1 chain 3 with S33N, K55Y, S96N
B3: XENP36941 (GPC3-A H1.1_L1.29, 1+1 Fab-scFv-Fc bsAb with CD3 High-Int #1 scFv) (bispecific antibody)
chain 1: B1 chain 1
chain 2: not shown
chain 3: B1 chain 3 with S33N, K55Q, S96N

Substitutions are numbered along the chain they refer to.

The target of the assay is T1, His-tagged human GPC3 antigen (human, UniProt P51654 25-559, limits assumed).
T1 construct: His-tagged antigen captured on HIS1K Octet sensors; also called 人GPC3; human glypican-3
T1 sequence (P51654 25-559 limits assumed): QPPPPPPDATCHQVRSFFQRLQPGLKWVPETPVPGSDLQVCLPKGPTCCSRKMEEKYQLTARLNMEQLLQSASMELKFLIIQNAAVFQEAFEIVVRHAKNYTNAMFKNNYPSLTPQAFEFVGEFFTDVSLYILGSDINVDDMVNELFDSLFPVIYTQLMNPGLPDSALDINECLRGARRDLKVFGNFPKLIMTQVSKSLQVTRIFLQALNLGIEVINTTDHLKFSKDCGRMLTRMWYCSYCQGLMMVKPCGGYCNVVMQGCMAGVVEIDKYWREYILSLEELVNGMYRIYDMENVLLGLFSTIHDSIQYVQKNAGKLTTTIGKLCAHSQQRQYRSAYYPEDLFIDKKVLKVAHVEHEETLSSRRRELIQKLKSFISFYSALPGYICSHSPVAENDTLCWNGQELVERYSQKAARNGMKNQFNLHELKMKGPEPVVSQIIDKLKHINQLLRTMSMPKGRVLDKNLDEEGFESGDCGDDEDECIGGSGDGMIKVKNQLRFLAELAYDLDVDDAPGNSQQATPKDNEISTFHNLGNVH
Nature of the assay: Octet BLI; His-tagged GPC3 captured on HIS1K sensor, bsAb (1+1 Fab-scFv-Fc) as analyte.
Turning to B1, binding was put at a Kd of 100 nM.

B2 displayed a Kd of 400 nM.

The molecule B3 showed an equilibrium dissociation constant (Kd) of 70 nM.
